Reference: PMC6391492, “Native mass spectrometry identifies an alternative DNA-binding pathway for BirA from Staphylococcus aureus”

Tests used:
[1] = molecular target: S. aureus BirA (biotin retention protein A, biotin protein ligase), strain Mu50, wild type (S. aureus strain Mu50); assay: native MS; holo proteins, 10 µM, with 5 µM SabioO oligonucleotide with only one BirA half site, 200 mM ammonium acetate pH 6.9, 4 °C at least 1 hour
[2] = molecular target: S. aureus BirA (biotin retention protein A, biotin protein ligase), strain Mu50, wild type (S. aureus strain Mu50); assay: native MS; holo proteins (pre-incubated with 500 µM biotin, 1 mM ATP, 1 mM MgCl2 on ice, then buffer exchanged), no DNA, 10 µM protein in 200 mM ammonium acetate pH 6.85; dimer to monomers
SaBirA [3] = molecular target: T1, SaBirA (Staphylococcus aureus Mu50, UniProt A0A0H3JRH8 1-323); assay: native nESI-MS; apo; two subunits on DNA; nESI-MS: 200 mM ammonium acetate pH 6.9, 10 uM protein, 5 uM DNA, 4 C >=1 h; EMSA: 50 mM Tris pH 8.0, 50 mM NaCl, 0.1 mM biotin, 1 mM ATP, 1 mM MgCl2, 10% glycerol, 10 nM DNA, room temperature 30 min; settings: protein: recombinant; label: none; blunt
SaBirA-F123G [4] = molecular target: T2, SaBirA-F123G (Staphylococcus aureus Mu50, UniProt A0A0H3JRH8 1-323, F123G); assay: EMSA; holo; biotin, ATP, Mg2+; nESI-MS: 200 mM ammonium acetate pH 6.9, 10 uM protein, 5 uM DNA, 4 C >=1 h; EMSA: 50 mM Tris pH 8.0, 50 mM NaCl, 0.1 mM biotin, 1 mM ATP, 1 mM MgCl2, 10% glycerol, 10 nM DNA, room temperature 30 min; settings: protein: recombinant, label: none
SaBirA [5] = molecular target: T1, SaBirA; assay: native nESI-MS; apo; one monomer on DNA, no dimer; nESI-MS: 200 mM ammonium acetate pH 6.9, 10 uM protein, 5 uM DNA, 4 C >=1 h; EMSA: 50 mM Tris pH 8.0, 50 mM NaCl, 0.1 mM biotin, 1 mM ATP, 1 mM MgCl2, 10% glycerol, 10 nM DNA, room temperature 30 min; settings: protein: recombinant; label: none; blunt
SaBirA-F123G [6] = molecular target: T2, SaBirA-F123G; assay: native nESI-MS; apo; one subunit on DNA; nESI-MS: 200 mM ammonium acetate pH 6.9, 10 uM protein, 5 uM DNA, 4 C >=1 h; EMSA: 50 mM Tris pH 8.0, 50 mM NaCl, 0.1 mM biotin, 1 mM ATP, 1 mM MgCl2, 10% glycerol, 10 nM DNA, room temperature 30 min; settings: protein: recombinant; label: none; blunt
SaBirA [7] = molecular target: T1, SaBirA; assay: EMSA; holo; biotin, ATP, Mg2+; up to 2 uM; nESI-MS: 200 mM ammonium acetate pH 6.9, 10 uM protein, 5 uM DNA, 4 C >=1 h; EMSA: 50 mM Tris pH 8.0, 50 mM NaCl, 0.1 mM biotin, 1 mM ATP, 1 mM MgCl2, 10% glycerol, 10 nM DNA, room temperature 30 min; settings: protein: recombinant; label: none; blunt
SaBirA-F123G [8] = molecular target: T2, SaBirA-F123G; assay: native nESI-MS; apo; nESI-MS: 200 mM ammonium acetate pH 6.9, 10 uM protein, 5 uM DNA, 4 C >=1 h; EMSA: 50 mM Tris pH 8.0, 50 mM NaCl, 0.1 mM biotin, 1 mM ATP, 1 mM MgCl2, 10% glycerol, 10 nM DNA, room temperature 30 min; settings: protein: recombinant; label: none; blunt
SaBirA [9] = molecular target: T1, SaBirA; assay: as above; settings: protein: recombinant; label: none; blunt
EcBirA = EcBirA (Escherichia coli, UniProt P06709 1-321); assay: native nESI-MS; holo (biotinyl-5'-AMP); two subunits on DNA; nESI-MS: 200 mM ammonium acetate pH 6.9, 10 uM protein, 5 uM DNA, 4 C >=1 h; EMSA: 50 mM Tris pH 8.0, 50 mM NaCl, 0.1 mM biotin, 1 mM ATP, 1 mM MgCl2, 10% glycerol, 10 nM DNA, room temperature 30 min; settings: protein: recombinant; chain copies: 2; label: none
EcBirA-R119W = EcBirA-R119W (Escherichia coli, UniProt P06709 1-321, R119W); assay: native nESI-MS; holo (biotinyl-5'-AMP); two subunits on DNA; 10 uM protein; nESI-MS: 200 mM ammonium acetate pH 6.9, 10 uM protein, 5 uM DNA, 4 C >=1 h; EMSA: 50 mM Tris pH 8.0, 50 mM NaCl, 0.1 mM biotin, 1 mM ATP, 1 mM MgCl2, 10% glycerol, 10 nM DNA, room temperature 30 min; settings: protein: recombinant; label: none

Molecule: S. aureus BirA (biotin retention protein A, biotin protein ligase), strain Mu50, wild type (enzyme)
- stoichiometry N [1]: 2
- stoichiometry N [2]: 2

B1: SabioY (full strands) (dsDNA)
DNA 1: AACTTATTGTAAACTTTTCATTTCTTAAAGTTTACAATGGTGCT
DNA 2: AGCACCATTGTAAACTTTAAGAAATGAAAAGTTTACAATAAGTT
- binding result (SaBirA [3]): binds
- binding result (SaBirA-F123G [4]; blunt): binds

B2: SabioO (dsDNA)
DNA 1: CCTTAAATGTAAACTTTTATAATTAATAAGTTTACATTTAAG
DNA 2: CCTTAAATGTAAACTTATTAATTATAAAAGTTTACATTTAAGG
- binding result (SaBirA-F123G [4]): binds

B3: HS1m SabioO (first half-site mutated) (dsDNA)
DNA 1: TTACACAGACGATTATTAATTATAAAAGTTTACATTCG
DNA 2: CGAATGTAAACTTTTATAATTAATAATCGTCTGTGTAA
- binding result (SaBirA [5]): binds
- binding result (SaBirA-F123G [6]): binds

B4: HS2m SabioO (second half-site mutated) (dsDNA)
DNA 1: TTAAATGTAAACTTATTAATTATAAAAAGCAGACACCG
DNA 2: CGGTGTCTGCTTTTTATAATTAATAAGTTTACATTTAA
- binding result (SaBirA [7]): no binding

B5: HSm SabioO (both half-sites mutated) (dsDNA)
DNA 1: TTACACAGACGATTATTAATTATAAAAAGCAGACACCG
DNA 2: CGGTGTCTGCTTTTTATAATTAATAATCGTCTGTGTAA
- binding result (SaBirA-F123G [8]): no binding
- binding result (SaBirA [9]): no binding

B6: EcbioO (dsDNA)
DNA 1: TAATCGACTTGTAAACCAAATTGAAAAGATTTAGGTTTACAAGTCTACAC
DNA 2: GTGTAGACTTGTAAACCTAAATCTTTTCAATTTGGTTTACAAGTCGATTA
- binding result (EcBirA): binds
- binding result (EcBirA-R119W): binds
